Laboratory results from US20090149339A1 (published 2009).
Ends that are not written are not given here. * marks the point of attachment. Biotin = O=C1N[C@H]2[C@H](CS[C@H]2CCCCC(=O)*)N1

Key:
[1] = molecular target: T1, GST-41.8 kD PDZ domain fusion protein (hypothetical 41.8 kD protein AA4-85; PDZ domain 1 of 1) (UniProt P08515 1-218 = GST); experiment: A and G assays
T1 construct: also called hypoth

[2] = molecular target: GST-LIM PDZ domain fusion protein (Human LIM protein AA29-112; PDZ domain 1 of 1) (human, UniProt P08515 1-218 = GST); experiment: A/G assays
Chain of GST-LIM PDZ domain fusion protein (Human LIM protein AA29-112; PDZ domain 1 of 1) (P08515 1-218, tags or fused parts left off): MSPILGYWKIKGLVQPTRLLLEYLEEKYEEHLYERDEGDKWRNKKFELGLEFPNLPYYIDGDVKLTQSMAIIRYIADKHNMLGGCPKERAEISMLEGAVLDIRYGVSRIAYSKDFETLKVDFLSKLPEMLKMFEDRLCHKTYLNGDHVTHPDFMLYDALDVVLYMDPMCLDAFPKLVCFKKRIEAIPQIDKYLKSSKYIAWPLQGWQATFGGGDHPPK

[3] = molecular target: T2, GST-RGS12 PDZ domain fusion protein (human regulator of G-protein signalling 12 AA35-103; PDZ domain 1 of 1) (human, UniProt P08515 1-218 = GST); experiment: A/G assays
T2 construct: also called RSG12
T2 sequence (P08515 1-218, tags or fused parts left off): as above

[4] = molecular target: GST-prIL16 PDZ domain fusion protein (putative interleukin 16 precursor AA170-383; PDZ domains 1-2 of 2) (UniProt P08515 1-218 = GST); experiment: A/G assays
Chain of GST-prIL16 PDZ domain fusion protein (putative interleukin 16 precursor AA170-383; PDZ domains 1-2 of 2) (P08515 1-218, tags or fused parts left off): as above

[5] = molecular target: T3, GST-CBP PDZ domain fusion protein (Cytohesin binding protein HE AA85-175; PDZ domain 1 of 1) (UniProt P08515 1-218 = GST); experiment: A/G assays
T3 construct: also called Prot
T3 sequence (P08515 1-218, tags or fused parts left off): as above

[6] = molecular target: T4, GST-KIAA0559 PDZ domain fusion protein (KIAA0559 AA766-870; PDZ1 of 1) (UniProt P08515 1-218 = GST); experiment: A/G assays
T4 construct: also called K559
T4 sequence (P08515 1-218, tags or fused parts left off): as above

[7] = molecular target: GST-PTN-4 PDZ domain fusion protein (protein-tyrosine phosphatase meg1 AA774-862; PDZ domain 1 of 1) (UniProt P08515 1-218 = GST); experiment: A/G assays
Chain of GST-PTN-4 PDZ domain fusion protein (protein-tyrosine phosphatase meg1 AA774-862; PDZ domain 1 of 1) (P08515 1-218, tags or fused parts left off): as above

[8] = molecular target: GST-MINT3 PDZ domain fusion protein (human MINT3 AA11-52; PDZ domain 1 of 1) (human, UniProt P08515 1-218 = GST); experiment: A/G assays
[9] = molecular target: T5, GST-SYN1a PDZ domain fusion protein (alpha1-syntrophin AA96-189; PDZ domain 1 of 1) (UniProt P08515 1-218 = GST); experiment: A/G assays
T5 construct: also called SYN 1 alpha; SYNTR 1 alpha
T5 sequence (P08515 1-218, tags or fused parts left off): as above

[10] = molecular target: T6, GST-MPP2 PDZ domain fusion protein (maguk p55 subfamily member 2 (DLG2) AA185-273; PDZ domain 1 of 1) (UniProt P08515 1-218 = GST); experiment: A/G assays
T6 construct: also called MMP2
T6 sequence (P08515 1-218, tags or fused parts left off): as above

[11] = molecular target: T7, GST-TAX2 PDZ domain fusion protein (human tax interaction protein 2 AA54-140; PDZ domain 1 of 1) (human, UniProt P08515 1-218 = GST); experiment: A/G assays
T7 construct: also called TX 2
T7 sequence (P08515 1-218, tags or fused parts left off): as above

[12] = molecular target: GST-TIAM1 PDZ domain fusion protein (T-lymphoma invasion and metastasis inducing protein 1 AA1001-1088); PDZ 1 … (UniProt P08515 1-218 = GST); experiment: A/G assays
[13] = molecular target: T8, GST-CASK PDZ domain fusion protein (CASK AA495-584; PDZ domain 1 of 1) (mouse, UniProt P08515 1-218 = GST); experiment: A/G assays
T8 construct: also called mCASK
T8 sequence (P08515 1-218, tags or fused parts left off): as above

[14] = molecular target: T9, GST-NeDLG PDZ domain fusion protein (presynaptic protein sao102, neuroendocrine-dlg; PDZ domains 1-2 of 3) (UniProt P08515 1-218 = GST); experiment: A/G assays
T9 construct: also called NeDLG1
T9 sequence (P08515 1-218, tags or fused parts left off): as above

[15] = molecular target: T10, GST-PSD95 PDZ domain fusion protein (human post-synaptic density protein 95 AA387-724; PDZ domains 1-3 of 3) (human, UniProt P08515 1-218 = GST); experiment: A/G assays
T10 sequence (P08515 1-218, tags or fused parts left off): as above

[16] = molecular target: GST-AF6 PDZ domain fusion protein (af-6 protein AA985-1077; PDZ domain 1 of 1) (UniProt P08515 1-218 = GST); experiment: A/G assays
Chain of GST-AF6 PDZ domain fusion protein (af-6 protein AA985-1077; PDZ domain 1 of 1) (P08515 1-218, tags or fused parts left off): as above

[17] = molecular target: T11, GST-TAX33 PDZ domain fusion protein (tax interaction protein 33 AA73-162; PDZ domain 1 of 1) (UniProt P08515 1-218 = GST); experiment: A/G assays
T11 construct: also called TX33
T11 sequence (P08515 1-218, tags or fused parts left off): as above

[18] = molecular target: T12, GST-KIAA0303 PDZ domain fusion protein (KIAA0303 AA652-742; PDZ domain 1 of 1) (UniProt P08515 1-218 = GST); experiment: A/G assays
T12 construct: also called K303
T12 sequence (P08515 1-218, tags or fused parts left off): as above

[19] = molecular target: GST-NOS1 PDZ domain fusion protein (human neuronal nitric oxide synthase; PDZ domain 1 of 1) (human, UniProt P08515 1-218 = GST); experiment: A/G assays
[20] = molecular target: T13, GST-TAX40 PDZ domain fusion protein (human tax interaction protein 40 AA35-137; PDZ domain 1 of 1) (human, UniProt P08515 1-218 = GST); experiment: A/G assays
T13 construct: also called TX 40

[21] = molecular target: GST-LIMK2 PDZ domain fusion protein (human LIM domain kinase 2 AA185-275; PDZ domain 1 of 1) (human, UniProt P08515 1-218 = GST); experiment: A/G assays
Chain of GST-LIMK2 PDZ domain fusion protein (human LIM domain kinase 2 AA185-275; PDZ domain 1 of 1) (P08515 1-218, tags or fused parts left off): as above

[22] = molecular target: T14, GST-TAX43 PDZ domain fusion protein (human tax interaction protein 43 AA15-85; PDZ domain 1 of 1) (human, UniProt P08515 1-218 = GST); experiment: A/G assays
T14 construct: also called TX 43
T14 sequence (P08515 1-218, tags or fused parts left off): as above

[23] = molecular target: GST-MPP1 PDZ domain fusion protein (55 Kd erythrocyte membrane protein AA101-186; PDZ domain 1 of 1) (UniProt P08515 1-218 = GST); experiment: A/G assays
Chain of GST-MPP1 PDZ domain fusion protein (55 Kd erythrocyte membrane protein AA101-186; PDZ domain 1 of 1) (P08515 1-218, tags or fused parts left off): as above

[24] = molecular target: T15, GST-KIAA0316 PDZ domain fusion protein (KIAA0316 AA197-284; PDZ domain 1 of 1) (UniProt P08515 1-218 = GST); experiment: A/G assays
T15 construct: also called K316
T15 sequence (P08515 1-218, tags or fused parts left off): as above

[25] = molecular target: GST-DVL1 PDZ domain fusion protein (human dishevelled segment polarity protein homolog AA248-340); PDZ domain … (human, UniProt P08515 1-218 = GST); experiment: A/G assays
Chain of GST-DVL1 PDZ domain fusion protein (human dishevelled segment polarity protein homolog AA248-340); PDZ domain … (P08515 1-218, tags or fused parts left off): as above

[26] = molecular target: T10, GST-PSD95 PDZ domain fusion protein …; experiment: A and G assays
[27] = molecular target: T9, GST-NeDLG PDZ domain fusion protein …; experiment: G assay
[28] = molecular target: T1, GST-41.8 kD PDZ domain fusion protein …; experiment: A/G assays
[29] = molecular target: T1, GST-41.8 kD PDZ domain fusion protein …; experiment: A assay

T1 sequence (P08515 1-218, tags or fused parts left off): as above

Biotin-PYGTAMEKAQLKPPATSDA [CD49E (alpha-4) C-terminal PL peptide AA11L, biotinylated]
binding result [1]: binds | binding result [2]: no binding | binding result [3]: no binding | binding result [4]: no binding | binding result [5]: no binding | binding result [6]: no binding | binding result [7]: no binding | binding result [8]: no binding | binding result [9]: no binding | binding result [10]: no binding | binding result [11]: no binding | binding result [12]: no binding | binding result [13]: no binding | binding result [14]: no binding | binding result [15]: no binding | binding result [16]: no binding | binding result [17]: no binding | binding result [18]: no binding | binding result [19]: no binding | binding result [20]: no binding | binding result [21]: no binding | binding result [22]: no binding | binding result [23]: no binding | binding result [24]: no binding | binding result [25]: no binding

Biotin-KKGTYLTDETHREVKFTSL [CD46 (form 1) C-terminal PL peptide AA10L, biotinylated]
binding result [26]: binds | binding result [27]: binds | binding result [2]: no binding | binding result [3]: no binding | binding result [4]: no binding | binding result [5]: no binding | binding result [6]: no binding | binding result [7]: no binding | binding result [8]: no binding | binding result [9]: no binding | binding result [10]: no binding | binding result [11]: no binding | binding result [12]: no binding | binding result [13]: no binding | binding result [28]: no binding | binding result [16]: no binding | binding result [17]: no binding | binding result [18]: no binding | binding result [19]: no binding | binding result [20]: no binding | binding result [21]: no binding | binding result [22]: no binding | binding result [23]: no binding | binding result [24]: no binding | binding result [25]: no binding

Biotin-PSWRRSSLSESENATSLTTF [BLR-1 C-terminal PL peptide AA45L, biotinylated]
binding result [2]: no binding | binding result [3]: no binding | binding result [4]: no binding | binding result [5]: no binding | binding result [6]: no binding | binding result [7]: no binding | binding result [8]: no binding | binding result [9]: no binding | binding result [10]: no binding | binding result [11]: no binding | binding result [12]: no binding | binding result [13]: no binding | binding result [28]: no binding | binding result [14]: no binding | binding result [15]: no binding | binding result [16]: no binding | binding result [17]: no binding | binding result [18]: no binding | binding result [19]: no binding | binding result [20]: no binding | binding result [21]: no binding | binding result [22]: no binding | binding result [23]: no binding | binding result [24]: no binding | binding result [25]: no binding

Biotin-SPQPDSTDNDDYDDISAA [CD6 C-terminal PL peptide AA6L, biotinylated]
binding result [29]: binds | binding result [2]: no binding | binding result [3]: no binding | binding result [4]: no binding | binding result [5]: no binding | binding result [6]: no binding | binding result [7]: no binding | binding result [8]: no binding | binding result [9]: no binding | binding result [10]: no binding | binding result [11]: no binding | binding result [12]: no binding | binding result [13]: no binding | binding result [14]: no binding | binding result [15]: no binding | binding result [16]: no binding | binding result [17]: no binding | binding result [18]: no binding | binding result [19]: no binding | binding result [20]: no binding | binding result [21]: no binding | binding result [22]: no binding | binding result [23]: no binding | binding result [24]: no binding | binding result [25]: no binding

Biotin-TSGTGHNQTRALRASESGI [CD97 (CD55L) C-terminal PL peptide AA14L, biotinylated]
binding result [29]: binds | binding result [2]: no binding | binding result [3]: no binding | binding result [4]: no binding | binding result [5]: no binding | binding result [6]: no binding | binding result [7]: no binding | binding result [8]: no binding | binding result [9]: no binding | binding result [10]: no binding | binding result [11]: no binding | binding result [12]: no binding | binding result [13]: no binding | binding result [14]: no binding | binding result [15]: no binding | binding result [16]: no binding | binding result [17]: no binding | binding result [18]: no binding | binding result [19]: no binding | binding result [20]: no binding | binding result [21]: no binding | binding result [22]: no binding | binding result [23]: no binding | binding result [24]: no binding | binding result [25]: no binding
